Test results published in patent CN108610419A.
Substitutions are numbered along the chain they refer to. Blank lines part the entries; values can stand above or below the binder they belong to.

Target: 重组人HER2蛋白的胞外区 (rHER2-ECD) (human) (UniProt P04626)
Experiment: SPR (BIACORE3000), rHER2-ECD coupled to CM5 chip, antibody in flow, 25 °C

B3: hu14C5B-1 (antibody, V domains shown, not shown: a dimerising Fc or GST)
VH: EVQLVESGGGLVQPGGSLRLSCAASGFTFSAYNINWVKQAPGKGLEWIGNLDPYYGGSNYNPKFKDKATLSRDNSKNTAYLQMNSLRAEDTAVYYCTRILWSRDYYTMDYWGQGTLVTVSS
VL: DIQVTQSPSSLSASVGDRVTITCRTSQDISNYLHWYQQKPGKAPKLLIYSTSTAHSGVPSRFSGSGSGTDFTLTISSLQPEDFATYFCQQSYTLLYTFGQGTKVEIKR
Kd: 8.53 nM

B4: hu14C5B-6 (antibody, V domains shown, not shown: a dimerising Fc or GST)
VH: B3 VH with A31L
VL: B3 VL with A54L, L95P
Kd: 4.62 nM

B6: hu14C5B-2 (antibody, V domains shown, not shown: a dimerising Fc or GST)
VH: B3 VH with A31L
VL: B3 VL
Kd: 31.5 nM

Continued by falling Kd, values first:

Kd: 0.295 nM
B1: m14C5B (antibody, mouse IgG1, V domains shown)
VH: EVQLQQSGPELEKPGASVKISCRTSGYSFTMYNINWVKQTNGKSLEWIGNLDAYYGGSNYNPKFKDKATLTVDISSNTAFMQLWSLTSEDSAVYYCTRILWSRDFYTMDYWGRGTSVTVSS
VL: DIQVTQTSSSLSASLGDRVTITCRTSQDISNYLHWYQQTPDGTVKLLIYSTSTGHSGVPSRFSGSGSGTDYSLTISNLEQEDIATYFCQQSYTLAYTFGGGTKLEIKR

Kd: 0.242 nM
B2: hu14C5B (antibody, V domains shown, not shown: a dimerising Fc or GST)
VH: B3 VH with F27Y, T28S, S30T, A31M, P53A, Y105F
VL: B3 VL with A54G, L95A

Kd: 0.186 nM
B5: hu14C5B-5 (antibody, human IgG1, kappa, V domains shown)
VH: B3 VH
VL: B3 VL with A54L, L95P
